Laboratory results from paper PMC10689493 (Nature Communications, 2023).

T1: S2hlx-Ex19 epitope scaffold (synthetic design (Mus musculus VPS54 …))
T1 construct: source: E. coli BL-21 (DE3), purified (Ni-NTA, SEC)
T1 chain: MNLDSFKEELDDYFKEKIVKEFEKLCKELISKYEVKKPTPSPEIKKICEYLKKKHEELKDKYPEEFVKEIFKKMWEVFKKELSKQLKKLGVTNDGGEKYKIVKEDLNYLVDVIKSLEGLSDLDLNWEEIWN

T2: S2hlx-7 epitope scaffold (synthetic design (Rhodopseudomonas …))
T2 construct: source: E. coli BL-21 (DE3), purified (Ni-NTA, SEC)
T2 chain: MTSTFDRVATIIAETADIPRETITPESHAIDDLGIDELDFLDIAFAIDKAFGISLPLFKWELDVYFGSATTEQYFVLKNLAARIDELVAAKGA

T3: synthesized stem helix peptide (1140-1164) (SARS-CoV-2, UniProt P0DTC2)
T3 chain: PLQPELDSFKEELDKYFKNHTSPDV

B1: CC40.8 mAb (antibody, V domains shown)
VH: EVQLLESGGGLVQPGGSLRLSCAASGFTFSSYVMTWARQAPGKGLEWVSAISGTGYTYYADSVKGRFTVSRDNSKNTLFLQMSSLRAEDTAVYYCAITMAPVVWGQGTTVTVSS
VL: SYELTQPPSVSVSPGQTARITCSGDALPKRYAYWYQQKSGQAPILVIYEDKKRPSGIPERLSGSKSGTVATLTISGAQVEDEADYYCYSTDSSGNHAVFGGGTQLTVL
notes: IgG; source: Expi293F, transfected, purified (Protein A)
B2: S2P6 mAb (antibody, V domains shown)
VH: EVQLVQSGAEVKKPGASVKVSCKASGYTFTSQYMHWVRQAPGQGLEWIGIINPSGVHTSYAQKFQGRVTLTRDTSTSTLYMELSSLRSEDTAVYYCARGSPKGAFDYWGQGTLVTVSS
VL: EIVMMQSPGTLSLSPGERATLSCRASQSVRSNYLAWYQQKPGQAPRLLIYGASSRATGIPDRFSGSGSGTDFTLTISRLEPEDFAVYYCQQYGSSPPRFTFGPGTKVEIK
notes: IgG; IGHV1-46/IGKV3-20; source: Expi293F, transfected, purified (Protein A)
B3: DH1057.1 mAb (antibody, V domains shown)
VH: EVQLVESGTEVKKPGASVKVSCKTSGYIFTNYYIHWVRQAPGQGLEWMGIFNPNGGGTSYAQKFQGRITLTGNTSANTGYMVLRSLTSEDTAVYYCARDPRTSGDNDGFDMWGQGTKVTVSS
VL: VLTQSPATLSLSPGERATLSCRASQSLSSYNYLAWYQQKPGQAPRLLIYAASKRATGIPARFSGSGSGTDFTLTISSLEPEDFAVYFCQQRSNRPPAWTFGQGTKVEIK
notes: source: Expi293F, transfected, purified (Protein A)
B4: DH1501.3 (antibody, V domains shown)
VH: QVQLVQSGAEVKKPGASVRLSCKASGDTFTNEYVQWVRQAPGQGLEWMGLINPSGSGTAFARNFQGRVSMTRDTSTRTVYMDLTSLRYEDTAVYYCARMSRAGTFDLWGQGTMVTVSS
VL: EIVLTQSPDTLSLSLGERATLFCRASETIDSRYLAWYQQKPGRAPRLLMSGTSVRATGIPDRFSGSGSGTDFTLTITRLEPEDFAVYYCQQYGSSPPRYTFGQGTKLAMK
B5: DH1501.2 (antibody, V domains shown)
VH: EVQLVESGAEVKKPGASVRLSCKASGDTFNNKYVHWVRQAPGQGLEWMGLINPSGSGTAFAQKFQGRVSMTRDTSTRTVYLGLTSLTYEDTAVYYCARMSRAGTFDIWDQGTMVTVSS
VL: EIVLTQSPGTLSLSPGDRATLSCRASENVGTSYLAWYQQKPGQAPRLLISGTSSRATGVPDRFSGSGSGRDFTLTISRLEPEDFAVYYCQQYGSSPPRYTFGQGTKLDMK
B6: DH1501.1 (antibody, V domains shown)
VH: EVQLVESGAEVKKPGASVRVSCKASGFTFTDHYMHWVRQAPGQGLEWMGLINPTGVNTFYAQNFRGRVTMTRDTSTKTDYLEVRSLTSQDTAMYYCARMSRYGAFDIWGQGTMVTVSL
VL: EIVLTQSPGTLSLSPGERATLSCRASQSVGSGYLAWYQQKPGQAPRLLIYGASVRATGIPDRFSGSGSGTDFSLTINRVEPEDFAMYYCQNYGSSPPRYTFGQGTKLEIK

How the values were obtained:
[1] = molecular target: T1, S2hlx-Ex19 epitope scaffold; assay: SPR; settings: both partners purified
[2] = molecular target: T4, synthesized SARS-CoV-2 stem helix peptide (residues 1147-1161) (SARS-CoV-2, UniProt P0DTC2); assay: ELISA; settings: both partners purified
T4 construct: source: synthetic peptide

OC43 Spike protein, 2 P = OC43 Spike protein, 2 P (human coronavirus OC43, isolate not …, UniProt P36334, stabilised); assay: ELISA; settings: both partners purified
S2hlx-7 epitope scaffold = molecular target: T2, S2hlx-7 epitope scaffold; assay: SPR; settings: both partners purified
[3] = molecular target: T3, synthesized stem helix peptide …; assay: ELISA; settings: both partners purified
[4] = molecular target: biotinylated SARS-CoV-2 Spike protein (WA-2, 2 P) (SARS-CoV-2 WA-2 (entry: reference …, UniProt P0DTC2, stabilised, biotinylated))

Binder	binding result [2]	binding result (OC43 Spike protein, 2 P)	binding result [4]	other results
B1	no binding	binds		Kd [1]: 6.7 nM
B2		binds		
B3	binds			fold better binding than spike (S2hlx-7 epitope scaffold): > 10 fold; binding result [3]: binds
B4			binds	
B5			binds	
B6			binds	
